B1: 2-13: anti-FAM19A5 antibody; VH SEQ ID NO: 35, VL SEQ ID NO: 39 (antibody, V domains shown)
VH: AVTLDESGGGLQTPGGALSLVCKASGFTFSSHGMFWVRQTPGKGLEYVAEITNDGSGTNYGSAVKGRATISRDNGQSTVRLQLNNLRAEDTGTYFCARSTYECPGGFSCWGDTGQIDAWGHGTEVIVSS
VL: ALTQPSSVSANPGETVKITCSGGSYSYGWFQQKSPGSALVTVIYWDDERPSDIPSRFSGALSGSTNTLTITGVQADDEAVYFCGTEDISGTAGVFGAGTTLTVL
modifications: 2-13 VH; 2-13 VL
B2: 1-30: anti-FAM19A5 antibody, de-immunized variant of 3-2; VH SEQ ID NO: 235, VL SEQ ID NO: 240 (antibody, V domains shown)
VH: AVTLDESGGGLQTPGGALRLSCKASGFDFESFNMFWVRQAPGKGLEYVSQISSSEEDENYAPAVKGRATISRDNGQSTLYLQMNSLRAEDTGTYYCAKSSYDCPYGHCSSGVDSAGEIDAWGHGTEVIVSS
VL: ALTQPSSVSANPGETVKITCSGGGSEEEQYYYGWYQQKPGSAPVTLIYQDEERPSDIPSRFSGSTSGSTATLTITGVQAGDEADYYCGSWDSEDEDHFGAGTTLTVL
modifications: Low-PI VH, 1-30 VH, 1-17 VH, 1-32 VH, 4-11 VH, 6-10 VH; 1-30 VL

Key:
[1] = tested on: primary mouse spiral ganglion neurons; assay: Promotion of neurite outgrowth; assay type: cell-based; conditions: neurons isolated at postnatal day 4; neurofilament staining
Procedure: Sprial ganglion neuron were cultured in culture media consisting of high-glucose (4.5 mg/mL) DMEM, 0.1 mg/ml penicillin, 0.1 mg/mL streptomycin, N2 supplement, and 10 µg/mL insulin and was designated here as “5K” because in this media, [K+]=5.4 mM. A depolarizing media, designated as “30K,” in which Na was replaced with equimolar K to raise [K] to 30 mM while maintaining osmolarity was also used.
Dissociated spiral ganglion cell cultures were prepared from postnatal day 4-5 (P4-5) cochleae and maintained using a procedure modified from the methods described by Bok et al., J Neurosci 23 (3): 777-87 (2003), which is incorporated herein by reference in its entirety. The cochleae were aseptically dissected from the temporal bone and submerged in ice-cold HBSS (Gibco). Subsequent steps involved the removal of the bony cochlear capsule and the spiral ligament. The organ of Corti, surrounding connective tissue and modiolar bone was removed while preserving the spiral ganglion neurons within the modiolus. […]
Neurite outgrowth was quantified by measuring the total length of neurites per neuron. Neurons were stained with NF200 at either 2 or 3 DIV, and neurite lengths were measured using the Fiji (Image J). Individual neurons were manually selected, and neurite lengths were determined using the Simple Neurite Tracer plugin. […]

[2] = tested on: noise-induced hearing loss mouse model; assay: Noise-induced hearing loss mouse model, first antibody dose 2 hours post noise exposure; assay type: in vivo; conditions: first dose 2 hours post noise
Procedure: FIGS. 13A, 13B, 13C, 13D, and 13E show the therapeutic effect of FAM19A5 antagonists (administered 2 hours after noise induction) on auditory brainstem response (ABR) threshold in a noise-induced hearing loss mouse model. The overall design was similar as that provided in FIG. 6A, except that the antibodies were administered to the animals at 2 hours post noise induction. FIG. 13A provides the results before noise exposure. FIG. 13B provides the results at one day post noise exposure. FIG. 13C provides the results at two weeks post noise exposure. FIG. 13D provides the results at four weeks post noise exposure. FIG. 13E provides the results at eight weeks post noise exposure. ABR threshold was measured at a frequency ranging from 4 kHz to 64 kHz.
FIGS. 14A and 14B show the effect of FAM19A5 antagonists on ABR I/O function in a noise-induced hearing loss mouse model. FIG. 14A provides comparisons of wave I amplitude (1st graph) and wave IV amplitude (2nd graph) in animals treated with the anti-FAM19A5 antibody (square), before noise group (triangle) or control IgG antibody (circle) 2 weeks after noise exposure. FIG. 14B provides comparisons of wave I amplitude (1st graph) and wave IV amplitude (2nd graph) in animals treated with the anti-FAM19A5 antibody (square), before noise group (triangle) or control IgG antibody (circle) 4 weeks after noise exposure. Tone bursts were measured across 0 and 90 dB.
Next, to assess whether the timing of the anti-FAM19A5 antibody administration has an effect, the above-described noise-induced hearing loss mouse model was used again. Again, to induce hearing loss, the animals were exposed to a temporary threshold shift (TTS) of 105 decibels for 30 minutes. An anti-FAM19A5 antibody (1-30 antibody) or a control human IgG antibody was intravenously administered to the animals once weekly for 5 total administration (30 mg/kg per dose). […] Hearing loss was assessed (e.g., by measuring ABR threshold, DPOAE threshold, and/or DPOAE amplitude) in the animals prior to the noise exposure and then again at one day, two weeks, and four weeks post noise exposure.

[3] = 2 and 4 weeks after noise, particularly at higher tone-burst levels

Molecule	neurite length vs control human IgG antibody [1]	ABR threshold vs control antibody ([2]; 30 mg/kg i.v. weekly x5)	Wave I amplitude vs control antibody [2, 3]	Wave IV amplitude vs control antibody [2, 3]
B1	promoting neurite outgrowth	–	–	–
B2	promoting neurite outgrowth	did not appear to be any significant differences	noticeable differences were observed	noticeable differences were observed

Reference: US20260265360A1, “USE OF ANTI-FAM19A5 ANTAGONISTS FOR TREATING HEARING DISORDERS” (NEURACLE SCIENCE CO., LTD., priority 2023, published 2026)
